Source: patent US20230137562A1, “TAU AGGREGATION INHIBITORS” (priority 2017, published 2023)
Where “and” joins values, the source holds several entries; their conditions need not be identical. Identical values can stand only once. Square brackets hold non-standard residues; d marks the D form. Ends that are not written are not given here. NMeR = CN[C@@H](CCCNC(=N)N)C(=O)O; hArg = N=C(N)NCCCC[C@H](N)C(=O)O; Orn = NCCC[C@H](N)C(=O)O

Target: T1, Ac-VQIINK-NH2
T1 peptide: Ac-VQIINK-NH2
Assay: cell-based or functional assay

Binder | IC50 (µM), VQIINK Inhibition (ThT)
WKLKLRWW | 0.82 µM
IRLWIW | 1.83 µM
RIRIRW | 10.8 µM
HRIWIRYW | 4.3 µM
WRARARW | 29.1 µM
WLKVQVRLW | 1.71 µM
WRIWIRRW | 3.85 µM
LRIRIRL | 17.8 µM
RRIWIRYW | 5.61 µM
WYRIRLRYW | 2.98 µM
WRIRLWYR | 1.7 µM
RIRLEWW | 3.89 µM
WRIWLRYW | 2.32 µM
WWIRIRYWK | 1.89 µM
WKIKLKYW | 2.82 µM
WRIRIRL | 7.38 µM
LRIRIRW | 4.31 µM
RIRIFIF | 2.87 µM
WRFRLYLR | 2.81 µM
WKVWVRYW | 4.93 µM
RIWLRLW | 2.01 µM
WY[hArg]L[hArg]I[hArg]W [WY(hR)L(hR)I(hR)W] | 2.95 µM
WRIRLYWW | 2.35 µM
RYRIWIW | 5.74 µM
WRIRLRYW | 4.13 µM
WRIQIRW | 2.17 µM

Binder | IC50 (µM), VQIINK Inhibition (ThT)
WWIRLRYW | 3.24 µM
IWIRLW | 2.12 µM
WRLRIHW | 3.2 µM
FRIRIRW | 4.04 µM
RIRILIL | 1.64 µM
ERIRIRW | 5.98 µM
WY[Orn]IWI[Orn]W [WYOIWIOW] | 2.45 µM
WWIRIRYWR | 1.79 µM
WRIRIRF | 42.8 µM
WAIRIRW | 1.94 µM
WRIRIRYW | 2.44 µM and 3.77 µM
WRI[NMeR]IRW [WRI(NMe)RIRW] | 3.84 µM
RLRIWIW | 2.04 µM
WYRIWVRYW | 2.22 µM
WWIRIRYW | 1.92 µM
WRIRLWYW | 1.98 µM
WWIRIRYWL | 4.88 µM
RIWIRLW | 2.31 µM
WRLKVRWW | 3.34 µM
WRLWFWWR | 1.19 µM
WRIRWRYW | 3.46 µM
WRIFIRW | 9.13 µM
RWRIWIW | 3.44 µM
WIRIRIW | 0.81 µM and 1.72 µM
WRITIRW | 2.64 µM
IWLRLW | 2.29 µM

Target: His-Tau40P301L Tau (UniProt P10636-8 1-441)
Sequence (P10636 other isoform, or with tags, fused parts or gaps limits assumed): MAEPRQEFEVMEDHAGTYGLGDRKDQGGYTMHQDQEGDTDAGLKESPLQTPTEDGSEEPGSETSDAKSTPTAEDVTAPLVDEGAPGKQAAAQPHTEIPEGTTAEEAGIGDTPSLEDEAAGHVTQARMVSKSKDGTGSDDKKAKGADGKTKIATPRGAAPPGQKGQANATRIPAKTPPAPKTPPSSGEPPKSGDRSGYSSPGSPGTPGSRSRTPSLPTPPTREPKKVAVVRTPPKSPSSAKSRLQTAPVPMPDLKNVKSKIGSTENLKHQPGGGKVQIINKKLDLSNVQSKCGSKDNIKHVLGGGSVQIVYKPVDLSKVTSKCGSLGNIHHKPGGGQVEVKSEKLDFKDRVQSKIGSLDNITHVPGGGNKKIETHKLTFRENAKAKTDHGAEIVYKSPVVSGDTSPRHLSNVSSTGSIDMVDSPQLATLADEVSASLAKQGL
Assay: cell-based or functional assay

Binder | IC50 (µM), Tau40 assay (ThT)
WKLKLRWW | 2.06 µM
IRLWIW | 9.6 µM
RIRIRW | 10.9 µM
HRIWIRYW | 1.87 µM
WRARARW | 12 µM
WLKVQVRLW | 1.86 µM
WRIWIRRW | 1.68 µM
LRIRIRL | 1.82 µM
RRIWIRYW | 1.96 µM
WYRIRLRYW | 1.13 µM and 1.21 µM
WRIRLWYR | 1.31 µM
RIRLEWW | 9.8 µM
WRIWLRYW | 2.05 µM
WWIRIRYWK | 1.02 µM and 1.12 µM
WKIKLKYW | 1.3 µM and 1.32 µM
WRIRIRL | 1.52 µM
LRIRIRW | 2.07 µM
RIRIFIF | 1.96 µM
WRFRLYLR | 47 µM
WKVWVRYW | 2.09 µM
RIWLRLW | 2.14 µM
WY[hArg]L[hArg]I[hArg]W [WY(hR)L(hR)I(hR)W] | 1.74 µM
WRIRLYWW | 1.15 µM
RYRIWIW | 1.61 µM
WRIRLRYW | 1.02 µM and 1.32 µM
WRIQIRW | 1.7 µM and 2.34 µM

Binder | IC50 (µM), Tau40 assay (ThT)
WWIRLRYW | 1.32 µM and 1.53 µM
IWIRLW | 11.4 µM
WRLRIHW | 1.82 µM
FRIRIRW | 1.47 µM
RIRILIL | 2.15 µM
ERIRIRW | 12.2 µM
WY[Orn]IWI[Orn]W [WYOIWIOW] | 1.92 µM
WWIRIRYWR | 1.48 µM and 1.58 µM
WRIRIRF | 10.8 µM
WAIRIRW | 1.72 µM
WRIRIRYW | 1.22 µM and 1.33 µM and 1.37 µM
WRI[NMeR]IRW [WRI(NMe)RIRW] | 0.57 µM
RLRIWIW | 1.21 µM
WYRIWVRYW | 1.86 µM and 2.08 µM
WWIRIRYW | 1.1 µM and 1.38 µM
WRIRLWYW | 0.68 µM
WWIRIRYWL | 1.2 µM and 1.31 µM
RIWIRLW | 2.06 µM
WRLKVRWW | 1.24 µM
WRLWFWWR | 1.82 µM
WRIRWRYW | 0.42 µM and 0.41 µM
WRIFIRW | 2.01 µM
RWRIWIW | 0.76 µM
WIRIRIW | 2.03 µM and 2.04 µM
WRITIRW | 1.99 µM
IWLRLW | 9.93 µM
